Here are results for 3 molecules from paper PMC3017428 (Molecular cell, 2010).

To fix the notation:
B1: Spn1(148–293) (domain or fragment, S. cerevisiae, UniProt Q06505 148-293, looked up)
chain: DDLEQYLDEKILRLKDEMNIAAQLDIDTLNKRIETGDTSLIAMQKVKLLPKVVSVLSKANLADTILDNNLLQSVRIWLEPLPDGSLPSFEIQKSLFAALNDLPVKTEHLKESGLGRVVIFYTKSKRVEAQLARLAEKLIAEWTRPI

Holding throughout (test): ITC
For orientation: ITC needs no label: the signal is the heat of the interaction.

For experiment [1], the target named is T1, Spt6(239–1117) (S. cerevisiae, UniProt P23615 239-1117).
T1 sequence (looked up): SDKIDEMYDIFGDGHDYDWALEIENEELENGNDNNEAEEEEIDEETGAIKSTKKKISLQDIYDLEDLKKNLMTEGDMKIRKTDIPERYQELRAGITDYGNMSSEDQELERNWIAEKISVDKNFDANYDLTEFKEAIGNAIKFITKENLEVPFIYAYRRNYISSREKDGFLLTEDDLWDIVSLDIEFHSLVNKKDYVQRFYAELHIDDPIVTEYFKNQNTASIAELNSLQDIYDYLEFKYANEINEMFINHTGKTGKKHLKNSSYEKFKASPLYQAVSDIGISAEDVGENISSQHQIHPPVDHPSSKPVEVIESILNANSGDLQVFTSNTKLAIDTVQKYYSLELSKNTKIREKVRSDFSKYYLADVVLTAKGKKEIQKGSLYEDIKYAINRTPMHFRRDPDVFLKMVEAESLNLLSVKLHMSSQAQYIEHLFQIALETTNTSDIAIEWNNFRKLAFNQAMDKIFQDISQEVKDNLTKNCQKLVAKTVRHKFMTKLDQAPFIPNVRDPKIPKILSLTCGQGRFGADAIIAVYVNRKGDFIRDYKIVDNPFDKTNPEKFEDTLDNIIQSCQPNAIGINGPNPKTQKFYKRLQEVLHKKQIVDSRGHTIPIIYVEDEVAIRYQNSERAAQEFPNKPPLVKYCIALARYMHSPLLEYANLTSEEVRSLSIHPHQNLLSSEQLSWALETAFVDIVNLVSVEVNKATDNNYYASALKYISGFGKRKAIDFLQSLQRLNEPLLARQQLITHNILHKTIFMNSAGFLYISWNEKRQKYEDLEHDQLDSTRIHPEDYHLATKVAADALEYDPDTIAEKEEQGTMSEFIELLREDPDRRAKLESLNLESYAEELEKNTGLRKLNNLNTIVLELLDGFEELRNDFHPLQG

Experiment [2] deals with B1.
In experiment [3] the target is T2, Spn1(148–293)-R263D (S. cerevisiae, UniProt Q06505 148-293, R263D).
T2 sequence (looked up): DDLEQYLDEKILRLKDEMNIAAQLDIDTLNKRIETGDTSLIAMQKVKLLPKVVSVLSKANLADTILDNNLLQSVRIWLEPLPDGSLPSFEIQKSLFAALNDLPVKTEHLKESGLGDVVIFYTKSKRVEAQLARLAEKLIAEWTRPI

In the case of B1, the “stoichiometry N” value in experiment [1] was 1.
For SDKIDEMYDIFGDGHDYDWALEIENEELEN (domain or fragment, S. cerevisiae, UniProt P23615 239-268, looked up) [Spt6(239–268)], the “stoichiometry N” value in experiment [2] amounted to 1. The Kd in experiment [3] stood at 30 µM.
In turn, SDKIDEMYDIKGDGHDYDWALEIENEELEN (domain or fragment, S. cerevisiae, UniProt P23615 239-268, looked up) [Spt6(239–268)-F249K] yielded a Kd in experiment [2] of 11 µM.

A word on the stoichiometry N: it is the number of molecules, sites or subunits per partner or assembly. A word on the Kd: it is a measure of binding affinity in units of concentration. High values mean lower affinity, low ones higher affinity.
